Read-outs that look alike come from different tables or passages of the source. Positions of bridges follow the written chain, without caps; N, C: chain ends. MBP = not defined here
Assays:
Assay type in all cases: binding
[1] = target: T1, interaction between CTLA-4 and B7-1 (Homo sapiens, UniProt P16410); experiment: CTLA-4:B7-1[Biotinylated] Inhibitor Screening Assay (BPS Bioscience kit)
T1 construct: purchased BPS Bioscience Inc
T1 sequence (P16410 36-161 limits assumed): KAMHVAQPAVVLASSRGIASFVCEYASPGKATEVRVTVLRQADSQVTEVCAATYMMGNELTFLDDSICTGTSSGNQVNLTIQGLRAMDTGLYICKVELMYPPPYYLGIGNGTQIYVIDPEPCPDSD
Method: We prepared the C4m-3127 cyclic peptide using chemical synthesis and examined its properties. First, the inhibitory activity was tested using a kit (CTLA-4:B7-1[Biotinylated] Inhibitor Screening Assay, BPS Bioscience Inc.) (Figure 5A). […] In a sequence of C4m-3127, the GG linker behind C-terminal Cys had mutated into Glu and Arg.
A cyclic peptide with a low EC50 value was synthesized by adding glycine to the N-terminus at Toray Research Center.
(B) Flow cytometry affinity analysis.

[2] = target: T2, CTLA-4 (Homo sapiens, UniProt P16410); experiment: E. coli lysate ELISA of MBP–peptide fusion proteins; settings: alanine mutants of C4m-310044 as MBP–peptide–His-tag fusion protein, compared with C4m-310044
T2 sequence (P16410 36-223): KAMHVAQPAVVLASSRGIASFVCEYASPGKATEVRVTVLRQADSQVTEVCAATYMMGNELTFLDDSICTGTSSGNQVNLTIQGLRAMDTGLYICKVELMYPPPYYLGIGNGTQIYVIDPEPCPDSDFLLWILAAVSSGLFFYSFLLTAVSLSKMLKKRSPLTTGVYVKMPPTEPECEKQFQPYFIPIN
From the text: We generated 14 alanine mutants as an MBP–peptide–His-tag fusion protein (Supplementary Figure S1A), and systematically investigated the effects of alanine substitution by lysate ELISA (Supplementary Figure S1B). […] These eight residues were regarded as important for the interaction between C4m-310044 peptide and CTLA-4. Of the eight residues, six (H2, P3, L5, S9, H11, and F12) were highly conserved even after affinity maturation of C4-302 (Figure 4). These six amino acids were essential residues for binding with CTLA-4. […] Neither of these two residues is involved in binding, but they seem to contribute to affinity. […]
(B) 14 variants shown in (A) were expressed as the MBP-peptide fusion protein. The binding activity of each on CTLA-4 was evaluated using lysate ELISA. The BL21(DE3) E. coli cells transformed with each alanine scanning mutant were grown in 100 μL of 2xYT/50 μg/mL ampicillin at 37 °C until OD600 of 0.5–0.8 was reached. After IPTG (0.5 mM) was added, the broth was incubated at 25 °C, with shaking overnight. The cell broth was lysed using lysis buffer (5 mg/mL lysozyme (FUJIFILM Wako) in PBS, 50% BugBuster ® (v/v) (Merck Millipore) at RT for 2 h, with shaking. The lysate was blocked with TBS/0.05% Tween-20/12.5% skim milk by incubating at RT for 0.5 h, shaking, then added to CTLA-4-immobilized wells on 384-plate and incubated at RT for 1.5 h. After washing and incubation with anti-FLAG M2 ®-peroxidase antibody (1:10,000; Sigma Aldrich) at RT for 1 h, the absorbance at 450 nm/ 650 nm was read with a microplate reader through the reaction with 1x TMB substrate solution and 2N

[3] = target: T2, CTLA-4; experiment: ELISA-based determination of EC50 value of MBP–peptide–His-tag fusion constructs
Method: Peptides with binding specificity for CTLA-4 were overexpressed as fusion proteins with MBP at the N-terminus and His-tag at the C-terminus. After BL21(DE3) E. coli cells were transformed, the fusion constructs were grown in 200 mL of 2xYT/[…] ampicillin at 37 °C until an OD600 of 0.5–0.8 was reached. Then, IPTG (0.5 mM) was added. The broth was incubated at 25 °C with shaking overnight. After the cell broth was centrifuged, the pellet was resuspended in 20 mM Tris-HCl pH 7.5/500 mM NaCl and sonicated (Bioruptor UCD-250, Sonicbio Co. Ltd., Kanagawa, Japan). The sample was centrifuged, then the supernatant was purified on Ni Sepharose^TM 6FF (Cytiva, Tokyo, Japan). The purified sample was buffer exchanged to PBS by dialysis and quantified using a kit (BCA Protein Assay Kit, Thermo Fisher Scientific, Waltham, MA, USA).
CTLA-4 (5 μg/mL) was coated onto a NUNC® Maxisoap^TM 384 well plate and incubated at 4 °C overnight. After the wells were washed twice with TBS/0.05% Tween-20, they were blocked with 100 μL of TBS/0.05% Tween-20/5% skim milk by incubating at RT for 1 h with shaking. […] The absorbance was measured at 450 nm/650 nm with a microplate reader (Infinite F200, Tecan Japan Co., Ltd., Kanagawa, Japan). The absorbance versus the concentration of MBP–peptide–His-tag fusion was found. The midpoint concentration was determined as the half-maximal effective concentration (EC50) value.

[4] = inhibition of CTLA-4:B7-1 interaction, luminescence, four-parameter logistic fit, read-out: IC50

| Compound | absorbance in lysate ELISA [2] | also measured |
| --- | --- | --- |
| CC(C)[C@H]1ON(C(=O)OCc2ccccc2)[C@H]2CN(CCc3ccccc3)C(=O)[C@H](CCCNC(=N)N)N2C1=O [PGF00452, Benzyl (3R,6S,9aS)-6-(3-guanidinopropyl)-3-isopropyl-4,7-dioxo-8-phenethylhexahydropyrazino [2,1-c][1,2,4]oxadiazine-1(6H)-carboxylate] | – | IC50 [1, 4]: 147 µM |
| S9A: alanine mutant of C4m-310044 as MBP–peptide–His-tag fusion protein ({MBP}-CLHPFLPIVAHHFCGR-{His‑tag}; disulfide 1-14 (inferred); reading uncertain) | marked decrease in absorbance | – |
| P3A: alanine mutant of C4m-310044 as MBP–peptide–His-tag fusion protein ({MBP}-CLHAFLPIVSHHFCGR-{His‑tag}; disulfide 1-14 (inferred); reading uncertain) | marked decrease in absorbance | – |
| L1A: alanine mutant of C4m-310044 as MBP–peptide–His-tag fusion protein ({MBP}-CAHPFLPIVSHHFCGR-{His‑tag}; disulfide 1-14 (inferred); reading uncertain) | same level of absorbance with C4m-310044 | – |
| R(+2)A: alanine mutant of C4m-310044 as MBP–peptide–His-tag fusion protein ({MBP}-CLHPFLPIVSHHFCGA-{His‑tag}; disulfide 1-14 (inferred); reading uncertain) | same level of absorbance with C4m-310044 | – |
| CC(C)[C@H]1ON(C(=O)OCc2ccccc2)[C@H]2CN(CCc3ccccc3)C(=O)[C@H](Cc3c[nH]cn3)N2C1=O [PGF00432, Benzyl (3R,6S,9aS)-6-((1H-imidazol-4-yl)methyl)-3-isopropyl-4,7-dioxo-8-phenethylhexahydropyrazino [2,1-c][1,2,4]oxadiazine-1(6H)-carboxylate] | – | IC50 [1, 4]: 294 µM |
| C4m-3127: best binder clone from affinity maturation of C4-302, random loop MHPFLPIVSHHF, expressed as MBP fusion protein ({MBP}-CMHPFLPIVSHHFCER-{His‑tag}; disulfide 1-14 (inferred); not fully specified; reading uncertain) | – | affinity relative to C4-302 ([3]; MBP fusion protein, times greater affinity than C4-302): 50 times; EC50 ([3]; purified MBP–peptide–His-tag fusion protein, ELISA on immobilized CTLA-4): 0.0747 µM; IC50 ([1]; inhibition of CTLA-4:B7-1 interaction, luminescence, four-parameter logistic fit, listed as MBP–C4m-3127 peptide–His-tag fusion protein, read-out: IC50): 1.36 µM; IC50 [1, 4]: 11.5 µM |
| L5A: alanine mutant of C4m-310044 as MBP–peptide–His-tag fusion protein ({MBP}-CLHPFAPIVSHHFCGR-{His‑tag}; disulfide 1-14 (inferred); reading uncertain) | marked decrease in absorbance | – |
| I7A: alanine mutant of C4m-310044 as MBP–peptide–His-tag fusion protein ({MBP}-CLHPFLPAVSHHFCGR-{His‑tag}; disulfide 1-14 (inferred); reading uncertain) | marked decrease in absorbance | – |
| H2A: alanine mutant of C4m-310044 as MBP–peptide–His-tag fusion protein ({MBP}-CLAPFLPIVSHHFCGR-{His‑tag}; disulfide 1-14 (inferred); reading uncertain) | marked decrease in absorbance | – |
| G(+1)A: alanine mutant of C4m-310044 as MBP–peptide–His-tag fusion protein ({MBP}-CLHPFLPIVSHHFCAR-{His‑tag}; disulfide 1-14 (inferred); reading uncertain) | same level of absorbance with C4m-310044 | – |
| N=C(N)NCCC[C@H]1C(=O)N(CCc2ccccc2)C[C@@H]2N(C(=O)OCc3ccccc3)O[C@H](CC3CCCCC3)C(=O)N21 [PGF00478, Benzyl (3R,6S,9aS)-3-(cyclohexylmethyl)-6-(3-guanidinopropyl)-4,7-dioxo-8-phenethylhexahydropyrazino [2,1-c][1,2,4]oxadiazine-1(6H)-carboxylate] | – | IC50 [1, 4]: 80 µM; IC50 ([1]; values printed in Figure 7, read-out: IC50, CTLA-4/B7-1 interaction inhibitory activity): 60 µM |
| F12A: alanine mutant of C4m-310044 as MBP–peptide–His-tag fusion protein ({MBP}-CLHPFLPIVSHHACGR-{His‑tag}; disulfide 1-14 (inferred); reading uncertain) | marked decrease in absorbance | – |
| H10A: alanine mutant of C4m-310044 as MBP–peptide–His-tag fusion protein ({MBP}-CLHPFLPIVSAHFCGR-{His‑tag}; disulfide 1-14 (inferred); reading uncertain) | same level of absorbance with C4m-310044 | – |
| F4A: alanine mutant of C4m-310044 as MBP–peptide–His-tag fusion protein ({MBP}-CLHPALPIVSHHFCGR-{His‑tag}; disulfide 1-14 (inferred); reading uncertain) | same level of absorbance with C4m-310044 | – |
| H11A: alanine mutant of C4m-310044 as MBP–peptide–His-tag fusion protein ({MBP}-CLHPFLPIVSHAFCGR-{His‑tag}; disulfide 1-14 (inferred); reading uncertain) | marked decrease in absorbance | – |
| V8A: alanine mutant of C4m-310044 as MBP–peptide–His-tag fusion protein ({MBP}-CLHPFLPIASHHFCGR-{His‑tag}; disulfide 1-14 (inferred); reading uncertain) | same level of absorbance with C4m-310044 | – |
| P6A: alanine mutant of C4m-310044 as MBP–peptide–His-tag fusion protein ({MBP}-CLHPFLAIVSHHFCGR-{His‑tag}; disulfide 1-14 (inferred); reading uncertain) | marked decrease in absorbance | – |

Source: paper PMC9784018, “Rational Strategy for Designing Peptidomimetic Small Molecules Based on Cyclic Peptides Targeting Protein–Protein Interaction between CTLA-4 and B7-1” (Pharmaceuticals, 2022)
